Assay results as given in patent US10906989 (dated 2021).
Where two headings read alike, the source gives them in different places.

T1: BODIPY-labeled staphylocoagulase SC (S7C)(1-325) (Staphylococcus aureus, UniProt P17855 27-351)
T1 sequence: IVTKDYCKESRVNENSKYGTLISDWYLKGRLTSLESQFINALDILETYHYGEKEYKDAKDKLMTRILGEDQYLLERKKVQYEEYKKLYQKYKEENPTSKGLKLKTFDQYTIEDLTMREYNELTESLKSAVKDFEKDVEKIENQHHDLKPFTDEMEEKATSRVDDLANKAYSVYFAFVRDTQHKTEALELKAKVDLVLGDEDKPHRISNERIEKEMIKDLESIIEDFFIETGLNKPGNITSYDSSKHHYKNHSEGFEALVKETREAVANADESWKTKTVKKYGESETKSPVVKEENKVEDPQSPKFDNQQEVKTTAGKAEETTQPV

T2: staphylocoagulase SC(1-246), unlabeled (Staphylococcus aureus, UniProt P17855 27-272)
T2 sequence: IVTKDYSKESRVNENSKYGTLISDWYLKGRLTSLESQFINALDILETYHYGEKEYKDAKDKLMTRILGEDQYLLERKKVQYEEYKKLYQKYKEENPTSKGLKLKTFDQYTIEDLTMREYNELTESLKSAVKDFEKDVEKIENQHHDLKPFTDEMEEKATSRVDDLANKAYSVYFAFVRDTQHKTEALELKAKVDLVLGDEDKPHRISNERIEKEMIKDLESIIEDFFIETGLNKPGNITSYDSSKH


What was measured:
[1] = target: T1, BODIPY-labeled staphylocoagulase SC …; assay: BODIPY fluorescence increase on titration, quadratic binding equation
[2] = target: Mutated Peptide Ala 8 (Staphylococcus aureus); assay: solid phase competitive inhibition ELISA; peptide in solution against coated …
[3] = target: Mutated Peptide Ala 9 (Staphylococcus aureus); assay: as above
[4] = target: Mutated Peptide Ala 8 & 9 (Staphylococcus aureus); assay: as above
[5] = target: T1, BODIPY-labeled staphylocoagulase SC …
[6] = target: T2, staphylocoagulase SC(1-246), unlabeled

Binder	Kd [1] [nM]	stoichiometry (n) [1]	binding result [2]	binding result [3]	binding result [4]	Kd [5] [nM]	stoichiometry [5]	Kd [6] [nM]
GMA-2105 murine monoclonal antibody (antibody, V domains shown, also called anti-SC(1-10) mAb; clone 2A1.5H4.B7) VH: EVKLEESGGGLVQPGGSMKLSCAASGFTFSDAWMDWVRQSPEKGLEWVAEIRTKANNHATYYAESVKGRFTISRDDSKSSVYLQMNSLRAEDTGIYYCTNVYYGNNDVKDYWGQGTSVTVSP VL: DIVMTQSQKFMSTSVGDRVSVTCKASQNVDIYVAWYQQKPGQSPKALIYSASYRFSGVPDRFTGSGSGTDFTLSISNVQSEDLAEYFCQQYNNYPYTFGGGTKLEIKR	2	1.6 mol BODIPY-SC/mol GMA-2105	binds	binds	binds	0.99	2 mol staphylocoagulase/mol GMA-2105	4
Chimeric GMA-2105 (antibody, V domains shown) VH: EVKLEESGGGLVQPGGSMKLSCAASGFTFSDAWMDWVRQSPEKGLEWVAEIRTKANNHATYYAESVKGRFTISRDDSKSSVYLQMNSLRAEDTGIYYCTNVYYGNNDVKDYWGQGTSVTVSP VL: DIVMTQSQKFMSTSVGDRVSVTCKASQNVDIYVAWYQQKPGQSPKALIYSASYRFSGVPDRFTGSGSGTDFTLSISNVQSEDLAEYFCQQYNNYPYTFGGGTKLEIKR						0.79	2 mol staphylocoagulase/mol chimeric antibody	
